Measured values from patent publication US20240018240A1 (Hoffmann-La Roche, published 2024).
Numbering of substitutions follows the chain as printed. One block for each binder: values may come before it.

Tests used:
[1] = molecular target: T1, Human CD3ε stalk-Fc(knob)-Avi/CD3δ stalk-Fc(hole) (human); test: SPR RAC assay (Biacore T200, 25°C); TCB captured by anti-PG antibody on CM3 chip, 200 nM human CD3ε/δ injected after 100 nM human PLAP
T1 construct: Heterodimer of CD3 delta and CD3 epsilon ectodomains fused to a human Fc domain with knob-into-hole modifications and C-terminal Avi-tag; also called human CD3ε/δ; CD3ε/δ
Protocol: (§1) SPR experiments were performed on a Biacore T200 instrument (GE Healthcare). For the immobilization. HBS-N pH 7.4 was used as a running buffer (Cytiva #BR100670). Anti-PG antibody (see Example 3) was immobilized by amine coupling (using amine coupling kit, Cytiva #BR100050) at a density of >6000 RU on a CM3 Chip (Cytiva #29104990). The anti-PG antibody stock solution was diluted to a concentration of 25 μg/mL in a 10 mM sodium acetate buffer of pH 5.0 (Cytiva #BR100351). After the immobilization the analysis was performed at 25° C., and using PBS-P+ (Cytiva #28995084) as a running and a dilution buffer. The 5 nM solutions of TCB molecule samples in PBS-P+ were captured for 30 sec at a flow rate 5 μl/min. Then a 100 nM solution of human PLAP was injected for 90 sec association time and 30 sec dissociation time at a flow rate of 8 μl/min. Thereafter, a 200 nM solution of human CD3ε/δ (see Example 3, SEQ ID NOs 24 and 25) was injected for 90 sec association time and 30 sec dissociation time at a flow rate of 8 μl/min. The regeneration of the surface followed by two 60 sec regeneration steps with a 10 mM NaOH solution. The data were analyzed with the Biacore T200 Evaluation and Excel software. For the calculation of relative active concentration (RAC) the binding report point (BRP) was used. To calculate the RAC, the target and antibody concentrations were referenced to the unstressed sample (−80° C.) as 100% comparison. For the normalization of the protein concentration, reference was made to anti-PG antibody capturing (RAC values).

[2] = molecular target: T1, Human CD3ε stalk-Fc(knob)-Avi/CD3δ …; test: SPR (Biacore T200, 25°C); TCB captured by anti-PG antibody on CM5 chip, 300 nM human CD3ε/δ injected; relative active concentration
Protocol: SPR experiments were performed on a Biacore T200 instrument (GE Healthcare) at 25° C. with HBS-P+(10 mM HEPES, 150 mM NaCl pH 7.4, 0.05% Surfactant P20) as running and dilution buffer. Anti-PG antibody (see Example 3) was immobilized by amine coupling (using amine coupling kit, Cytiva #BR100050) at a density of >6000 RU on a CM5 Chip (Sensor Chip CM5, Cytiva #29104988). The 10 nM solutions of TCB molecule samples in HBS-P+ were captured for 30 sec at a flow rate 10 μl/min. Then a 300 nM solution of human CD3ε/δ (see Example 3, SEQ ID NOs 24 and 25) was injected for 150 sec association time and 120 sec dissociation time at a flow rate of 10 μl/min. The regeneration of the surface followed by a 35 sec regeneration step with a 20 mM NaOH solution. The data were analyzed with the Biacore T200 Evaluation and Excel software. For the calculation of relative active concentration (RAC) the binding report point (BRP) was used (the BRP is a standard readout point in SPR, maximum response (unit/value) of interaction between antigen and antibody).

[3] = molecular target: T1, Human CD3ε stalk-Fc(knob)-Avi/CD3δ …; test: SPR single cycle kinetics (Biacore T200, 25°C); TCB captured by anti-PG antibody on CM3 chip, human CD3ε/δ as analyte
Protocol: (§2) The binding kinetics of the PLAP TCB molecules generated in Example 17 were characterized by the single cycle kinetic (SSK) assay. For this assay, again the SPR Biacore T200 was used. The immobilization was performed at 25° C. with HBS-N pH 7.4 as a running buffer (Cytiva #BR100670). The anti-PG antibody (see Example 3) was immobilized by amine coupling (using amine coupling kit, Cytiva #BR100050) at a density of >5000 RU on a CM3 Chip (Cytiva #29104990). The anti-PG antibody stock solution was diluted to a concentration of 25 μg/mL in a 10 mM sodium acetate buffer of pH 5.0 (Cytiva #BR100351). After the immobilization the analysis was performed at 25° C., and PBS-P+(Cytiva #28995084) was used as a running and a dilution buffer. The 3 nM solutions of TCB molecule samples in PBS-P+ were captured with anti-PG antibody on a CM3 sensor chip.
(§3) The derived kinetic rate constants and corresponding affinity values (equilibrium dissociation constant KD) are summarized in Table 26 for the CD3 binder and in Table 27 for the PLAP binder. The data were analyzed with the Biacore T200 Evaluation and Excel software.

[4] = molecular target: T2, Human PLAP (soluble, as injected in SPR) (human, UniProt P05187 23-506); test: SPR RAC assay (Biacore T200, 25°C); TCB captured by anti-PG antibody on CM3 chip, 100 nM human PLAP injected
T2 construct: also called PLAP target
Protocol: as §1

[5] = molecular target: T3, cynomolgus PLAP (ALPP) expressed on CHO-K1 cells (cynomolgus, UniProt P05187 23-452 (human entry)); test: cell-based or functional assay
T3 chain: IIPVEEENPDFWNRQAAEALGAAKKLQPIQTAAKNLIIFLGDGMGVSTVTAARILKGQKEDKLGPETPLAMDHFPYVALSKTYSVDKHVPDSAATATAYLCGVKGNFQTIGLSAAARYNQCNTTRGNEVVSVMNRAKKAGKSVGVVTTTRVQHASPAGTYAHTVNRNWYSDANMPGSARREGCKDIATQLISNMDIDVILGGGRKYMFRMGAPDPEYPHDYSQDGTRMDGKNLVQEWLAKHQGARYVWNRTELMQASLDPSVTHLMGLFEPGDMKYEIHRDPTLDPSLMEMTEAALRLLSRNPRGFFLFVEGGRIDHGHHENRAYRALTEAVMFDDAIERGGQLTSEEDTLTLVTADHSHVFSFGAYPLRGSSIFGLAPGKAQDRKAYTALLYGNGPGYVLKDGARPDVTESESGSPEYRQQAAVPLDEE

[6] = molecular target: T4, human PLAP (ALPP) expressed on CHO-K1 cells (human, UniProt P05187 23-506); test: cell-based or functional assay
[7] = molecular target: T2, Human PLAP (soluble, as injected in SPR); test: SPR single cycle kinetics (Biacore T200, 25°C); TCB captured by anti-PG antibody on CM3 chip, human PLAP as analyte
Protocol: as §2, §3

[8] = molecular target: T4, human PLAP (ALPP) expressed on CHO-K1 …; test: cell-based or functional assay; remark: listed apart in the source
[9] = molecular target: human ALPG (ALPPL2) expressed on CHO-K1 cells (human, UniProt P10696 20-503); test: cell-based or functional assay

T4 sequence (P05187 23-506): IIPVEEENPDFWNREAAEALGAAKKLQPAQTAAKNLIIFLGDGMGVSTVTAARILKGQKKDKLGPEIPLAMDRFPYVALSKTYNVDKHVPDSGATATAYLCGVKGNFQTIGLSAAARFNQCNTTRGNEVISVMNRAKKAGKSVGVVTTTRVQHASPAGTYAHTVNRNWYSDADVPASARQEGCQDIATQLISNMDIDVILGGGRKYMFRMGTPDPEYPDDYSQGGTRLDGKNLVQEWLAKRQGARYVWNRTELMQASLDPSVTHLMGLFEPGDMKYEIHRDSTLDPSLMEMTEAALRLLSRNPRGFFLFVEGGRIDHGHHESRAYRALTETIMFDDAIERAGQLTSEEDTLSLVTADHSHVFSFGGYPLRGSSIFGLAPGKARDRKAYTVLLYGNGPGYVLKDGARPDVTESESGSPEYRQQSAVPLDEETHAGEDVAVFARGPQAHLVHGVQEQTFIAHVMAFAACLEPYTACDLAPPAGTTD
T2 sequence (P05187 23-506 limits assumed): as the sequence (P05187 23-506) above

RAC [%] CD3 binding, stress A [1]: 99% | RAC [%] CD3 binding, stress B [1]: 98% | RAC [%] CD3 binding, unstressed [1]: 100% | RAC % of CD3 binding, stress A [2]: 99% | RAC % of CD3 binding, stress B [2]: 97% | RAC % of CD3 binding, unstressed [2]: 100% | Kd [3]: 0.5 nM | koff [3]: 0.000933 s⁻¹ | kon [3]: 2.09e+06 M⁻¹ s⁻¹ | RAC [%] PLAP binding, stress A [4]: 100% | RAC [%] PLAP binding, stress B [4]: 100% | RAC [%] PLAP binding, unstressed [4]: 100% | EC50 (pM), Jurkat NFAT reporter assay to show cynomolgus cross-reactivity [5]: 48 pM | EC50 (pM), Jurkat NFAT reporter assay to show cynomolgus cross-reactivity [6]: 98 pM | Kd [7]: 0.0051 nM | koff [7]: 2.22e-05 s⁻¹ | kon [7]: 4.33e+06 M⁻¹ s⁻¹ | EC50 (pM), Jurkat NFAT reporter assay (luminescence, 6 h) [8]: 35 pM | EC50 (pM), Jurkat NFAT reporter assay (luminescence, 6 h) [9]: 35 pM
B1: PLAP H3 CD3 P035.093 TCB (bispecific antibody, human IgG1, kappa, L234A L235A)
heavy 1: not shown
heavy 2: QVQLQESGPGLVKPSETLSLTCTVSGFSLTSYGVSWIRQPPGKGLEWIGVIWEDGSTNYNPSLKSRVTISVDTSKNQFSLKLSSVTAADTAVYYCARPHYGSSYVGAMEYWGAGTTVTVSSASTKGPSVFPLAPSSKSTSGGTAALGCLVEDYFPEPVTVSWNSGALTSGVHTFPAVLQSSGLYSLSSVVTVPSSSLGTQTYICNVNHKPSNTKVDEKVEPKSCDKTHTCPPCPAPEAAGGPSVFLFPPKPKDTLMISRTPEVTCVVVDVSHEDPEVKFNWYVDGVEVHNAKTKPREEQYNSTYRVVSVLTVLHQDWLNGKEYKCKVSNKALGAPIEKTISKAKGQPREPQVCTLPPSRDELTKNQVSLSCAVKGFYPSDIAVEWESNGQPENNYKTTPPVLDSDGSFFLVSKLTVDKSRWQQGNVFSCSVMHEALHNHYTQKSLSLSP
light 1: DIQMTQSPSSLSASVGDRVTITCRASENIYSYVAWYQQKPGKAPKLLIYNAKSLASGVPSRFSGSGSGTDFTLTISSLQPEDFATYYCQHHYVSPWTFGGGTKLEIKRTVAAPSVFIFPPSDRKLKSGTASVVCLLNNFYPREAKVQWKVDNALQSGNSQESVTEQDSKDSTYSLSSTLTLSKADYEKHKVYACEVTHQGLSSPVTKSFNRGEC
light 2: EVQLLESGGGLVQPGGSLRLSCAASGFTFSSYAMNWVRQAPGKGLEWVSRIRSKYNNYATYYADSVKGRFTISRDDSKNTLYLQMNSLRAEDTAVYYCVRASNFPASYVSYFAYWGQGTLVTVSSASVAAPSVFIFPPSDEQLKSGTASVVCLLNNFYPREAKVQWKVDNALQSGNSQESVTEQDSKDSTYSLSSTLTLSKADYEKHKVYACEVTHQGLSSPVTKSFNRGEC
notes: 2+1 IgG CrossFab, inverted; also called PLAP H3 TCB; PLAP (H3) TCB

RAC % of CD3 binding, stress A [2]: 97% | RAC % of CD3 binding, stress B [2]: 99% | RAC % of CD3 binding, unstressed [2]: 100% | EC50 (pM), Jurkat NFAT reporter assay to show cynomolgus cross-reactivity [5]: 52 pM | EC50 (pM), Jurkat NFAT reporter assay to show cynomolgus cross-reactivity [6]: 37 pM | EC50 (pM), Jurkat NFAT reporter assay (luminescence, 6 h) [8]: 36 pM | EC50 (pM), Jurkat NFAT reporter assay (luminescence, 6 h) [9]: 34 pM
B2: PLAP H5 CD3 P035.093 TCB (bispecific antibody, human IgG1, kappa, L234A L235A)
heavy 1: not shown
heavy 2: B1 heavy 2 with F27G, L29V, N60H, P61S, S62A, K64I
light 1: B1 light 1
light 2: B1 light 2
notes: also called PLAP H5 TCB; PLAP (H5) TCB
